Laboratory results from patent US20170275368A1 (Hoffmann-La Roche, published 2017).
Where two headings read alike, the source gives them in different places.

B1: <CSF-1R>7G5.3B6 (antibody, V domains shown)
VH: EIQLQQSGPELVKPGASVRVSCKPSGYSFTDYNMYWVRQSHGKSLDWIGYIDPYNGGTTYNQKFRGKATLTVDKSSSTAFMHLNSLTSEDSAVYYCARGGDEYYFDYWGQGTTLTVSS
VL: DIVMSQSPSSLAVSVGEKVTMSCKSSQSLLDSRNQKNYLAWYQQKPGQSPKLLIYWASTRESGVPDRFTGSGSGTDFTLTISSVKAEDLAVYYCQQYYSYPPTFGGGTKLEIKR
notes: Mouse monoclonal antibody from hybridoma DSM ACC2921 (NMRI mice), tested as purified hybridoma antibody; also called deposited antibody DSM ACC2921

What was measured:
[1] = target: mutant CSF-1R L301S Y969F (human) (UniProt P07333); experiment: cell-based or functional assay
[2] = target: T1, full-length wildtype CSF-1R (wt CSF-1R) (human, UniProt P07333 20-972); experiment: cell-based or functional assay
[3] = target: CSF-1R ECD (R&D-Systems 329-MR or in-house subcloned pCMV-presS-HisAvitag-hCSF-1R-ECD) (human) (UniProt P07333); experiment: SPR (BIACORE A100) at 35 C; antibody captured, CSF-1R ECD in solution; Langmuir 1:1
[4] = target: CSF-1R (R&D-Systems Cat. No. 329-MR) (human) (UniProt P07333); experiment: SPR cross-competition at 25 C; response of Antibody 2 on CSF-1R held by captured Antibody 1; competitor SC-02, clone 2-4A5 (Antibody 1, same antibody)
[5] = target: huCSF-1R-huFc chimera (soluble extracellular domain) (human) (UniProt P07333); experiment: competition ELISA: inhibition of CSF-1 binding to immobilised huCSF-1R-huFc chimera
[6] = target: CSF-1R (R&D-Systems Cat. No. 329-MR) (human) (UniProt P07333); experiment: SPR cross-competition at 25 C; response of Antibody 2 on CSF-1R held by captured Antibody 1; competitor <CSF-1R>7G5.3B6 (Antibody 1)
[7] = target: T1, full-length wildtype CSF-1R (wt CSF-1R); experiment: cell-based or functional assay; remark: listed apart in the source
[8] = target: T1, full-length wildtype CSF-1R (wt CSF-1R); experiment: cell-based or functional assay; remark: listed apart in the source
[9] = target: T2, huCSF-1R-huFc chimera (soluble extracellular domain) (human, UniProt P07333 20-517); experiment: competition ELISA: inhibition of CSF-1 binding to immobilised huCSF-1R-huFc chimera
T2 construct: also called huCSF-1R ECDhuFc chimera; not shown: human Fc part
Procedure: At the beginning, plates were coated with […] goat F(ab′)₂ biotinylated anti Fcγ (Jackson ImmunoResearch., Cat. No. 109-006-170) for 1 hour (h).
Thereafter the wells were blocked with PBS supplemented with 0.2% TWEEN®-20 and 2% BSA (Roche Diagnostics GmbH, DE) for 0.5 h. 75 ng/ml of huCSF-1R-huFc chimera (soluble extracellular domain) was immobilized to plate for 1 h. Then dilutions of purified antibodies in PBS/0.05% Tween20/0.5% BSA were incubated for 1 h. After adding a mixture of 3 ng/ml CSF-1 (Biomol, DE, Cat. No. 60530), 50 ng/ml biotinylated anti CSF-1 clone BAF216 (R&D Systems, UK) and 1:5000 diluted streptavidin HRP (Roche Diagnostics GmbH, DE, Cat. No. 11089153001) for 1 h the plates were washed 6 times with PBST. Anti CSF-IR SC-02, clone 2-4A5 (Santa Cruz Biotechnology, ITS), which inhibits the ligand-receptor interaction, was used as positive control. Plates were developed with freshly prepared BM BLUE® POD substrate solution (BM BLUE®: 3,3′-5,5′-Tetramethylbenzidine, Roche Diagnostics GmbH, DE, Cat. No. 11484281001) for 30 minutes at RT. Absorbance was measured at 370 nm. […] Anti CSF-1R SC-02, clone 2-4A5 (Santa Cruz Biotechnology, US), which inhibits the ligand-receptor interaction, was used as reference control.

[10] = target: CSF-1R ECD (R&D-Systems 329-MR or in-house subcloned pCMV-presS-HisAvitag-hCSF-1R-ECD) (human, UniProt P07333 20-517); experiment: SPR (BIACORE A100) at 35 C; antibody captured by anti mouse Fc gamma, CSF-1R ECD in solution; Langmuir 1:1
Procedure: CSF-1R ECD (R&D-Systems 329-MR or in-house subcloned pCMV-presS-HisAvitag-hCSF-1R-ECD were added in various concentrations in solution. Association was measured by an CSF-1R-injection of 1.5 minutes at 35° C.; dissociation was measured by washing the chip surface with buffer for 10 minutes at 35° C. Anti CSF-IR SC-02, clone 2-4A5 (Santa Cruz Biotechnology, US; see also Sherr, C. J., et al., Cell 41 (1985) 665-676), which inhibits the ligand-receptor interaction, was used as reference control.

Chain of CSF-1R ECD (R&D-Systems 329-MR or in-house subcloned pCMV-presS-HisAvitag-hCSF-1R-ECD) (human) (P07333 20-517 limits assumed): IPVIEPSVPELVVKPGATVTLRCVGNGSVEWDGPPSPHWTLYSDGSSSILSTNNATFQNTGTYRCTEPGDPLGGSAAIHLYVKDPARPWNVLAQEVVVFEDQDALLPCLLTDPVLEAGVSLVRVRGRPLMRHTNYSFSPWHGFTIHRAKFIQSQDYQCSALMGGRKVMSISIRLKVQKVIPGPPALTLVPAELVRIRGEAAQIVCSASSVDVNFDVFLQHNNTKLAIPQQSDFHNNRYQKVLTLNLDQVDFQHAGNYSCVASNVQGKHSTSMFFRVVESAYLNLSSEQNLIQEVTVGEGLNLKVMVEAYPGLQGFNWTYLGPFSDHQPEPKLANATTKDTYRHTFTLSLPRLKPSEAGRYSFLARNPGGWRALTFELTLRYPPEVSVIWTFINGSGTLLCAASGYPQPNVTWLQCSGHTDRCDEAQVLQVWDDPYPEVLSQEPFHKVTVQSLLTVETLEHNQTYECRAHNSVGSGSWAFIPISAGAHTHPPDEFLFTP
Chain of CSF-1R ECD (R&D-Systems 329-MR or in-house subcloned pCMV-presS-HisAvitag-hCSF-1R-ECD) (P07333 20-517 limits assumed): as above
T1 sequence (P07333 20-972 limits assumed): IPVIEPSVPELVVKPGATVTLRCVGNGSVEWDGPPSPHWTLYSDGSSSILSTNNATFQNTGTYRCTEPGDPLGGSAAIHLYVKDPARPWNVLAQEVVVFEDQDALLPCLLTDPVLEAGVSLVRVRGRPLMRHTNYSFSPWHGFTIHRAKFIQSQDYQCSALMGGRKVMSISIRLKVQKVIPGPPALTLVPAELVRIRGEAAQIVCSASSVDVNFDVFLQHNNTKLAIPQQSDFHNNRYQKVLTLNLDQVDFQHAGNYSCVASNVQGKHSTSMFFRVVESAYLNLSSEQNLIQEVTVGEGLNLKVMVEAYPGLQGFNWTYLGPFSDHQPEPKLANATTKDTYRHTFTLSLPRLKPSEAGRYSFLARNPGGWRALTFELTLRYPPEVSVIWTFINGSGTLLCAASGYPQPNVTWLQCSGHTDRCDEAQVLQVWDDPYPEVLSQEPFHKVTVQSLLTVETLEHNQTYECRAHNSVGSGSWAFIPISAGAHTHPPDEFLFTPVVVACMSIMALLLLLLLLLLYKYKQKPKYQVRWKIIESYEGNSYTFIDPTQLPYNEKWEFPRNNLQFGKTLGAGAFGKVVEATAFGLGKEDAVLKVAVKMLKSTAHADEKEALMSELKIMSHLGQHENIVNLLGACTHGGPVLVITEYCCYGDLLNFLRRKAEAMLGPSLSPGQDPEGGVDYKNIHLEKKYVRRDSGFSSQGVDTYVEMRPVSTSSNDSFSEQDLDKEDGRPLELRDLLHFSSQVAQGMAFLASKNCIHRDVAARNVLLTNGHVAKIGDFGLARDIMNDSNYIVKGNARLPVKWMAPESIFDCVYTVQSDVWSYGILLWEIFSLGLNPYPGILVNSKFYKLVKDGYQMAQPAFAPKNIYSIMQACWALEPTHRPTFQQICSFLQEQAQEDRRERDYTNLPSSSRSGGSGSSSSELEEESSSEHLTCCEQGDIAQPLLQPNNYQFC
Chain of CSF-1R (R&D-Systems Cat. No. 329-MR) (human) (P07333 20-517 limits assumed): as the sequence (P07333 20-517 limits assumed) above
T2 sequence (P07333 20-517, change not shown): as the sequence (P07333 20-517 limits assumed) above
Chain of huCSF-1R-huFc chimera (soluble extracellular domain) (human) (P07333 20-517, change not shown): as the sequence (P07333 20-517 limits assumed) above
Chain of mutant CSF-1R L301S Y969F (human) (P07333 20-972 L301S/Y969F limits assumed): as the sequence (P07333 20-972 limits assumed) above, with L282S, Y950F counted along it

Row | Molecule | % survival of NIH3T3 cells expressing mutant CSF-1R L301S Y969F, 10 ug/ml antibody (…-GLO) [1] [%] | % inhibition of CSF-1 induced growth of BeWo tumor cells, 10 ug/ml antibody concentration [2] [%] | % survival of NIH3T3 cells expressing wt CSF-1R, 10 ug/ml antibody (…-GLO) [2] [%] | IC50 CSF-1R Phosphorylation [2] [µg/mL] | IC50 [nM] of inhibition of monocyte survival (…-GLO) [2] [nM] | Kd [3] [nM] | koff [3] [s⁻¹] | kon [3] [M⁻¹ s⁻¹] | t1/2 [3] [min] | percentage (%) of expected binding response [4] [%] | IC50 [5] [µg/mL] | percentage (%) of expected binding response [6] [%] | IC50 [nM] of inhibition of monocyte survival (…-GLO) [7] [nM] | IC50 CSF-1R Phosphorylation [8] [µg/mL] | IC50 [9] [µg/mL] | Kd [10] [nM] | koff [10] [s⁻¹] | kon [10] [M⁻¹ s⁻¹] | t1/2 [10] [min]
1 | Anti CSF-1R SC-02, clone 2-4A5 (Santa Cruz Biotechnology) (antibody) | 66 | 40 | 62 | 0.412 | 2.4 | 2.73 | 0.00139 | 509000 | 8.31 | -2 | 0.0309 | 36 | – | – | – | – | – | – | –
2 | B1 | – | – | – | – | – | – | – | – | – | – | – | – | 0.4 | < 0.011 | 0.0188 | 0.61 | 0.0049 | 8e+06 | 2.37
